T1: FLINT (FAS Ligand Inhibitory Protein), mature human FLINT (human, UniProt O95407 30-300)
T1 construct: also called mature FLINT
T1 sequence: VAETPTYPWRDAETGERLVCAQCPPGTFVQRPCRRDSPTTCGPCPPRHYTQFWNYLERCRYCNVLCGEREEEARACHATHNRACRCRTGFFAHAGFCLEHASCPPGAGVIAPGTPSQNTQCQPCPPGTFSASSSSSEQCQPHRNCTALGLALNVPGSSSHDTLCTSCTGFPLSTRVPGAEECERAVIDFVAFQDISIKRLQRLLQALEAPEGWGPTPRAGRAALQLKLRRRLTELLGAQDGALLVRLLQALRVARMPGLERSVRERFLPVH

B1: FasLigand (monomer) (ligand, UniProt P48023 103-281, looked up)
chain: QLFHLQKELAELRESTSQMHTASSLEKQIGHPSPPPEKKELRKVAHLTGKSNSRSMPLEWEDTYGIVLLSGVKYKKGGLVINETGLYFVYSKVYFRGQSCNNLPLSHKVYMRNSKYPQDLVMMEGKMMSYCTTGQMWARSSYLGAVFNLTSADHLYVNVSELSLVNFEESQTFFGLYKL
notes: Immobilized on a CM5 chip by amine coupling and printed as 'FasLigand (monomer)'; also called Fas Ligand (Kamiya Biomedical Company)

Experiments:
[1] = biological target: T1, FLINT (FAS Ligand Inhibitory Protein), …; assay: SPR (Biacore 2000), FasLigand immobilized on CM5 chip, FLINT in solution
Description: (§1) FasL or the FLINT analog are immobilized through their primary amine group on lysine residues onto carboxymethyldextran polymer attached to a gold surface (Sensor Chip CM5). Immobilization is carried out using the amine coupling kit (Biacore) according to the manufacturer's protocol. Briefly, 100 µl of either FasL or FLINT analog solutions (10–25 µg/ml in sodium acetate buffer 20 mM, pH 5.0) is loaded onto an activated CM5 chip. After coupling, excess reactive groups on the surface are deactivated with 1M ethanolamine hydrochloride pH 8.5. The chip is then washed with a sodium acetate buffer 20 mM, pH 5.0 to remove non-covalently bound material.
(§2) To analyze the interaction between FasL and FLINT analogs, solutions containing the FLINT analogs are passed over the chip with PasL immobilized thereon. The amount of the FLINT analog associated with FasL is determined by measuring the surface plasmon resonance signal (in responce units, RU). Typically, FLINT analog solutions at different concentrations in HBS-ET buffer are loaded on the sensor chip for 10 minutes at a flow rate of 5 µl/min. […]
(§3) The data is evaluated and binding parameters determined using BIA evaluation 3.0.2 software (Biacore). The Kd for the interaction between FLINT and FasL and between FasL and Fas was determined using the protocols described above.

FasLigand (monomer) = biological target: B1; assay: SPR (Biacore 2000), FasLigand immobilized on CM5 chip, Fas in solution
Description: as §1, §2, §3

Row | Kd [1] [nM] | Kd (FasLigand (monomer)) [nM] | Binder
1 | 113 | – | B1
2 | – | 162 | Fas/Fc chimera (R&D Systems) (Fc fusion, UniProt P25445 26-173, looked up, The result line prints only 'Fas'; also called Pas/Fc chimera; Fc part of the bought chimera not given; not described) QVTDINSKGLELRKTVTTVETQNLEGLHHDGQFCHKPCPPGERKARDCTVNGDEPDCVPCQEGKEYTDKAHFSSKCRRCRLCDEGHGLEVEINCTRTQNTKCRCKPNFFCNSTVCEHCDPCTKCEHGIIKECTLTSNTKCKEEGSRSN
